Laboratory results reported in patent publication EP4725970A1 (Fortvita Biologics Inc., dated 2026).
Where two headings read alike, the source gives them in different places.

Assays:
human CD3E&G-His/Free = biological target: T1, human CD3E&G-His/Free (human, UniProt P07766 23-126; P09693 23-116); experiment: BLI (Octet), 1:1 fit
T1 construct: Bought recombinant heterodimer; 'His/Free' as printed (one chain His-tagged); also called human CD3 E&G heterodimer

cyno CD3E&G-His/Free = biological target: T2, cyno CD3E&G-His/Free (cynomolgus monkey, UniProt Q95LI5 22-117; Q95LI7 23-113); experiment: BLI (Octet), 1:1 fit
T2 construct: Bought recombinant heterodimer; also called monkey CD3 E&G
T2 sequence (looked up) 1: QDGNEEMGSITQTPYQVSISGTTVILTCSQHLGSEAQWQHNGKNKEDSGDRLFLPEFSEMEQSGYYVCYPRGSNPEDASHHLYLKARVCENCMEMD
T2 sequence (looked up) 2: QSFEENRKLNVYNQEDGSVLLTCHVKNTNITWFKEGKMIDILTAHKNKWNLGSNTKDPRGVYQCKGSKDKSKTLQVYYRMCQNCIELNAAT

[1] = biological target: T3, human BCMA (full-length, on cells) (human, UniProt Q02223 1-184); experiment: cell-based or functional assay
T3 sequence: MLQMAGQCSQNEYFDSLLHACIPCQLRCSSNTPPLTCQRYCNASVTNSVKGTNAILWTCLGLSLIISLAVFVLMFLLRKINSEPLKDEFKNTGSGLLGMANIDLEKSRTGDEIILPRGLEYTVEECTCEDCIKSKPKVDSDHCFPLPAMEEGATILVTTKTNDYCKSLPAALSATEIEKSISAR

[2] = biological target: T3, human BCMA (full-length, on cells); experiment: cell-based or functional assay; remark: listed apart in the source
[3] = biological target: T3, human BCMA (full-length, on cells); experiment: cell-based or functional assay; remark: listed apart in the source
[4] = biological target: T4, human GPRC5D (full-length, on cells) (human, UniProt Q9NZD1 1-345); experiment: cell-based or functional assay
T4 sequence (Q9NZD1 whole entry): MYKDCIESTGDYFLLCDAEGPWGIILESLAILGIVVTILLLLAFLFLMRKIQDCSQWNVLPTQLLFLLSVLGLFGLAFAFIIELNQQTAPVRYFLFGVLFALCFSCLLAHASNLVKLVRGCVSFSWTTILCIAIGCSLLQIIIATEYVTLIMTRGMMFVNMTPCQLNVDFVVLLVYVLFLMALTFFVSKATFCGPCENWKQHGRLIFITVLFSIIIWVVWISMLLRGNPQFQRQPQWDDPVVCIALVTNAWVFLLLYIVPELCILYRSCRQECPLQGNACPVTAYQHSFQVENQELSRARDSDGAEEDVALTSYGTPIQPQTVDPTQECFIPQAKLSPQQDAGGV

[5] = biological target: T4, human GPRC5D (full-length, on cells); experiment: cell-based or functional assay; remark: listed apart in the source
[6] = biological target: T4, human GPRC5D (full-length, on cells); experiment: cell-based or functional assay; remark: listed apart in the source
[7] = biological target: T5, human CD3 (on Jurkat cells and human T cells) (human, UniProt P07766 23-207); experiment: flow cytometry, Jurkat cells
T5 construct: whole, on cells; the other chains of the complex on the cells are not described; also called CD3E
T5 sequence (P07766 23-207): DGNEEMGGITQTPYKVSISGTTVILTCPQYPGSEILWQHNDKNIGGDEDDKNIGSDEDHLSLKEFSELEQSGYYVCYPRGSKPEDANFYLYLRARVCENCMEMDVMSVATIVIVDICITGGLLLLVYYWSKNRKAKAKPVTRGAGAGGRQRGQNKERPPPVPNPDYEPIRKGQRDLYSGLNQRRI

[8] = biological target: T5, human CD3 (on Jurkat cells and human T …); experiment: flow cytometry, human CD4 T cells
[9] = biological target: T5, human CD3 (on Jurkat cells and human T …); experiment: flow cytometry, human CD8 T cells
[10] = biological target: T3, human BCMA (full-length, on cells); experiment: flow cytometry, GS-CHO-hBCMA cells
[11] = biological target: T4, human GPRC5D (full-length, on cells); experiment: flow cytometry, GS-CHO-hGPRC5D cells
[12] = biological target: T6, cynomolgus monkey BCMA (full-length, on cells) (cynomolgus monkey, UniProt A0A2K5UD97 1-183); experiment: flow cytometry, GS-CHO-cynoBCMA cells
T6 construct: whole, on cells; also called cynoBCMA; GS-CHO-cynoBCMA
T6 sequence (A0A2K5UD97 entry or part of it): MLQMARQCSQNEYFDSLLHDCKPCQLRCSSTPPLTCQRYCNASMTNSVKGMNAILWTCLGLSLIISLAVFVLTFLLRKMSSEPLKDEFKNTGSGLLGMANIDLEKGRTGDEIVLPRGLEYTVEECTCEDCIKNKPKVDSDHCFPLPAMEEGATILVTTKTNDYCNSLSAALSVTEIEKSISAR

[13] = biological target: T7, cynomolgus monkey GPRC5D (full-length, on cells) (cynomolgus monkey, UniProt A0A2K5W6I7 1-300); experiment: flow cytometry, GS-CHO-cynoGPRC5D cells
T7 construct: also called cynoGPRC5D; GS-CHO-cynoGPRC5D
T7 sequence (A0A2K5W6I7 entry or part of it limits assumed, form in doubt): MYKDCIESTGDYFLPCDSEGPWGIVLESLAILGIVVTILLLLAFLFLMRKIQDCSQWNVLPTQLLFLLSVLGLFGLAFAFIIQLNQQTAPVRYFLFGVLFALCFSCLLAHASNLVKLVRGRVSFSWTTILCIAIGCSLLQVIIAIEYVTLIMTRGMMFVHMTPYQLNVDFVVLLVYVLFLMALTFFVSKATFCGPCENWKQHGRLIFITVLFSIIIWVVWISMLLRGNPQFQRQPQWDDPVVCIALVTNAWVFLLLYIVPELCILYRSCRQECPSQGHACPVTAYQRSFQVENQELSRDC

BCMA-R39A (on cells) = biological target: T8, BCMA-R39A (on cells) (human, UniProt Q02223 1-184); experiment: flow cytometry on 293T and GS CHO cells (FIG. 2I, 2J)
T8 construct: also called hBCMA-R39A; 293T-hBCMA-R39A
T8 chain: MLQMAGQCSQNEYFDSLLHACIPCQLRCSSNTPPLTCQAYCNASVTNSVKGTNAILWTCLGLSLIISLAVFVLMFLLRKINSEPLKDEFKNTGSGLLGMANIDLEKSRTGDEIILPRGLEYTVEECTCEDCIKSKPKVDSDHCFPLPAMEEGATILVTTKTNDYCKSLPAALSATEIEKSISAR

BCMA-R27P (on cells) = biological target: T9, BCMA-R27P (on cells) (human, UniProt Q02223 1-184); experiment: as above
T9 construct: also called hBCMA-R27P; 293T-hBCMA-R27P
T9 chain: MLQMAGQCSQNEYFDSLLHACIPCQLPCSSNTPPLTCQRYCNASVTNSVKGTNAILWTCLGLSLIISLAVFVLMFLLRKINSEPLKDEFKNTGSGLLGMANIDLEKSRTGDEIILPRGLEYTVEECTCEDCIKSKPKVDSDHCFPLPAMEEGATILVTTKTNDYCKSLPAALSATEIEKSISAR

[14] = biological target: T4, human GPRC5D (full-length, on cells); experiment: cell-based or functional assay; remark: listed apart in the source
[15] = biological target: T3, human BCMA (full-length, on cells); experiment: cell-based or functional assay; remark: listed apart in the source

T1 sequence (P07766 23-126, chain 1 of 2): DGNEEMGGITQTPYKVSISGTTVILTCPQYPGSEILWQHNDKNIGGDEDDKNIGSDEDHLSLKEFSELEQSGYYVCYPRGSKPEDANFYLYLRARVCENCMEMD
T1 sequence (P09693 23-116, chain 2 of 2): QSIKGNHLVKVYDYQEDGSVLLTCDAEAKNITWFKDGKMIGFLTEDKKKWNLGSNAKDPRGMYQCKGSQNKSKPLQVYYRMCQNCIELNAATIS

B1: B3 (24) (hz5E12_sp34.24_497_triFab) (trispecific antibody, human IgG1, kappa, lambda, L234A L235A)
heavy 1: not shown
light 1: DIVMTQSPDSLAVSLGERATINCRASESVDSYGITFMNWYQQKPGQPPKLLIYAASNQGSGVPDRFSGSGSGTDFTLTISSLQAEDVAVYYCQQSKEVPWTFGQGTKLEIKRTVAAPSVFIFPPSDEQLKSGTASVVCLLNNFYPREAKVQWKVDNALQSGNSQESVTEQDSKDSTYSLSSTLTLSKADYEKHKVYACEVTHQGLSSPVTKSFNRGEC
heavy 2: not shown
light 2: DIQMTQSPSSLSASVGDRVTITCRASQSISRYLNWYQDKPGKAPKLLIYAASSLQSGVPSRFSGSGSGTDFTLTISSLQPEDFATYYCQQKYFDITFGGGTKVEIKRTVAAPSVFIFPPSDECLKSGTASVVCLLNNFYPREAKVQWKVDNALQSGNSQESVTEQDSKDSTYSLSSTLTLSKADYEKHKVYACEVTHQGLSSPVTKSFNRGES
light 3: QAVVTQEPSLTVSPGGTVTLTCRSSTGAVTTSNYANWVQKKPGQAPRGLIGGTNKRAPGVPARFSGSLLGDKAALTLLGAQPEDEAEYYCALWYSNLWVFGQGTKLTVLGQPKAAPSVTLFPPSSEELQANKATLVCLISDFYPGAVTVAWKADSSPVKAGVETTTPSKQSNNKYAASSYLSLTPEQWKSHRSYSCQVTHEGSTVEKTVAPTECS
notes: also called Exemplary antibody No. 1
Kd (human CD3E&G-His/Free): 13.3 nM
koff (human CD3E&G-His/Free): 0.00859 s⁻¹
kon (human CD3E&G-His/Free): 646000 M⁻¹ s⁻¹
Kd (cyno CD3E&G-His/Free): 9.51 nM
koff (cyno CD3E&G-His/Free): 0.00658 s⁻¹
kon (cyno CD3E&G-His/Free): 692000 M⁻¹ s⁻¹
EC50 of PBMC killing of H929 ko GPRC5D cells (LDH) [1]: 0.017 nM
EC50 of PBMC killing of H929 ko GPRC5D cells (LDH) [2]: 0.0867 nM
EC50 of PBMC killing of H929 ko GPRC5D cells, donor1 [3]: 0.0175 nM
EC50 of PBMC killing of H929 ko BCMA cells (LDH) [4]: 0.00149 nM
EC50 of PBMC killing of H929 ko BCMA cells (LDH) [5]: 0.00698 nM
EC50 of PBMC killing of H929 ko BCMA cells, donor1 [6]: 0.00931 nM
EC50 [7]: 34.5 nM
EC50 [8]: 53.6 nM
EC50 [9]: 54.5 nM
EC50 [10]: 11.4 nM
EC50 [11]: 80.7 nM
EC50 [12]: 14.2 nM
EC50 [13]: 256 nM
binding result (BCMA-R39A (on cells)): binds
binding result (BCMA-R27P (on cells)): binds

B2: Inno-G-7F5.3 (trispecific antibody, human IgG1, kappa, lambda, L234A L235A)
heavy 1: not shown
light 1: not shown
heavy 2: not shown
light 2: DIQMTQSPSSLSASVGDRVTITCRASQSISSYLNWYQDKPGKAPKLLIYAASSLQSGVPSRFSGSGSGTDFTLTISSLQPEDFATYYCQQADLPAFAFGGGTKVEIKRTVAAPSVFIFPPSDECLKSGTASVVCLLNNFYPREAKVQWKVDNALQSGNSQESVTEQDSKDSTYSLSSTLTLSKADYEKHKVYACEVTHQGLSSPVTKSFNRGES
light 3: QAVVTQEPSLTVSPGGTVTLTCRSSTGAVTTSNYANWVQKKPGQAPRGLIGGTNKRAPGVPARFSGSLLGDKAALTLLGAQPEDEAEYYCALWYSNLWVFGQGTKLTVLGQPKAAPSVTLFPPSSEELQANKATLVCLISDFYPGAVTVAWKADSSPVKAGVETTTPSKQSNNKYAASSYLSLTPEQWKSHRSYSCQVTHEGSTVEKTVAPTECS
EC50 of PBMC killing of L363 cells [14]: 1.07 nM

B3: Inno-B (Hel_sp34.24_497_triFab) (trispecific antibody, human IgG1, kappa, lambda, L234A L235A)
heavy 1: not shown
light 1: not shown
heavy 2: not shown
light 2: DIQMTQSPSSLSASVGDRVTITCRASQSISRYLNWYQDKPGKAPKLLIYAASSLQSGVPSRFSGSGSGTDFTLTISSLQPEDFATYYCQQKYFDITFGGGTKVEIKRTVAAPSVFIFPPSDECLKSGTASVVCLLNNFYPREAKVQWKVDNALQSGNSQESVTEQDSKDSTYSLSSTLTLSKADYEKHKVYACEVTHQGLSSPVTKSFNRGES
light 3: QAVVTQEPSLTVSPGGTVTLTCRSSTGAVTTSNYANWVQKKPGQAPRGLIGGTNKRAPGVPARFSGSLLGDKAALTLLGAQPEDEAEYYCALWYSNLWVFGQGTKLTVLGQPKAAPSVTLFPPSSEELQANKATLVCLISDFYPGAVTVAWKADSSPVKAGVETTTPSKQSNNKYAASSYLSLTPEQWKSHRSYSCQVTHEGSTVEKTVAPTECS
EC50 of PBMC killing of L363 cells [15]: 0.192 nM
